Legend:
[1] = molecular target: human complement factor C1q (human) (UniProt P02745); experiment: C1q ELISA, antibody coated; background OD405 0.079
[2] = molecular target: Fcγ receptor on human NK cells (FcγRIII) (human) (UniProt P08637); experiment: FACS on NK cells from human blood, antibody 10 µg/ml; no antibody: 0.03
[3] = molecular target: Fcγ receptors on human monocytes (FcγRI and RII); experiment: FACS on monocytes from human blood, antibody 10 µg/ml; no antibody: 8.5
[4] = molecular target: human complement factor C3 (from human pooled serum) (human) (UniProt P01024); experiment: C3 ELISA, antibody coated, human pooled serum; background OD405 0.098
Sequence of human complement factor C3 (from human pooled serum) (human) (P01024 23-1663 limits assumed): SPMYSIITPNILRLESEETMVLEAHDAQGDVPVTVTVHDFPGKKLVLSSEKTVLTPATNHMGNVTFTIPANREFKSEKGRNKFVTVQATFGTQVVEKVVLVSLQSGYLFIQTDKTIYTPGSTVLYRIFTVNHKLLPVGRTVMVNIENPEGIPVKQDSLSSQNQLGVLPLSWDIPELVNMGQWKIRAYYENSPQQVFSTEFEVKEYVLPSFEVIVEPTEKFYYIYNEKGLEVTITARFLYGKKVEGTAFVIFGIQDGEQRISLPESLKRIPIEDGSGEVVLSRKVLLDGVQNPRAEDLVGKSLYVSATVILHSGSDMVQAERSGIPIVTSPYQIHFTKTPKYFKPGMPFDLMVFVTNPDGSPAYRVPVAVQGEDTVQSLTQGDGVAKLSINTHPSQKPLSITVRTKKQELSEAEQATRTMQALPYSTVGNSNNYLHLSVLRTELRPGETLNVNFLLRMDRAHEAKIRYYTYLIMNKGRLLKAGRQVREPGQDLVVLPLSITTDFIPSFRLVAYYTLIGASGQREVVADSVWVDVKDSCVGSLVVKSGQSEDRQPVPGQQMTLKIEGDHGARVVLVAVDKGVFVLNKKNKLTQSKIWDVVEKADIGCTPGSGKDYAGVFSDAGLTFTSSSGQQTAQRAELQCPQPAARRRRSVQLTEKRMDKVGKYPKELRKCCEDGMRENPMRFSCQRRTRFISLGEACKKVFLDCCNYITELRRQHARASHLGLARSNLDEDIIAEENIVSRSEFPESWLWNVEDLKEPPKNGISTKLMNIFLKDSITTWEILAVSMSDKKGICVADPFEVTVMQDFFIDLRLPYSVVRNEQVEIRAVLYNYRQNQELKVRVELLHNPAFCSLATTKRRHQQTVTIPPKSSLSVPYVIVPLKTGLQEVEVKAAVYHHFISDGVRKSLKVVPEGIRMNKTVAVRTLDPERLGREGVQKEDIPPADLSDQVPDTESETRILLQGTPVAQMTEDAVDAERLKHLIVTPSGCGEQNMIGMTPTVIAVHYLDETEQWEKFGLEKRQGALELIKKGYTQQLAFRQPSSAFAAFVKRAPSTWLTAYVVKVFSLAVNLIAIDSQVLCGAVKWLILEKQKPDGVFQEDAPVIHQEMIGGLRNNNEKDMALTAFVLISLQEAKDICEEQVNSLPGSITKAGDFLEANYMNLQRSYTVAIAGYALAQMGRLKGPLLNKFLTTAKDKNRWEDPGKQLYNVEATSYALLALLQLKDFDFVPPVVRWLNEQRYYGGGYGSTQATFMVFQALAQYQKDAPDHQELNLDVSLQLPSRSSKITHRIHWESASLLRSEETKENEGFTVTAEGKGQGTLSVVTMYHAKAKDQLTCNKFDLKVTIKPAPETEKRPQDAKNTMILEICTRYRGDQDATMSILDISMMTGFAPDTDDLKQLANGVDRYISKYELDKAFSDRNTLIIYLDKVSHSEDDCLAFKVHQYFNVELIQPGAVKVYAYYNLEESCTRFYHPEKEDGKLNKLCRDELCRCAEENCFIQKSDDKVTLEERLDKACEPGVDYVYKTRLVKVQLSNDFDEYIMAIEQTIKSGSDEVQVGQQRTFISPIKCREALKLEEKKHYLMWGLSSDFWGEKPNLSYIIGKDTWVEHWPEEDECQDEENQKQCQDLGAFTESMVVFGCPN

[5] = molecular target: Fcγ receptors on human granulocytes (FcγRII and RIII); experiment: FACS on granulocytes from human blood, antibody 10 µg/ml; no antibody: 1.2

Sequence of Fcγ receptor on human NK cells (FcγRIII) (human) (P08637 17-254): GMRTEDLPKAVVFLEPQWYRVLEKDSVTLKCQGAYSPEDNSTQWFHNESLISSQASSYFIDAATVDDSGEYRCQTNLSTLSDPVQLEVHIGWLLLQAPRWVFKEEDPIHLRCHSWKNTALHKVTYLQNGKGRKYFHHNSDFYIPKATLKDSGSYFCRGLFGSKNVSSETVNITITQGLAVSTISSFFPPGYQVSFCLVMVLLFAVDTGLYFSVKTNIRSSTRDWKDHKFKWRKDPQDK
Sequence of human complement factor C1q (human) (P02745 23-245 limits assumed, chain 1 of 3): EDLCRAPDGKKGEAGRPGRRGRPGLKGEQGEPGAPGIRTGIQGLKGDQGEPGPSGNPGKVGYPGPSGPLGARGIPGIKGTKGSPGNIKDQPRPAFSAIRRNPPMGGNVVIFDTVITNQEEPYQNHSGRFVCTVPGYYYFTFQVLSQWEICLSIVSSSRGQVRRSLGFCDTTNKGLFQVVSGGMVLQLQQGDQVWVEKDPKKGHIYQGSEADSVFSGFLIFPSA
Sequence of human complement factor C1q (human) (P02746 28-253 limits assumed, chain 2 of 3, further chain): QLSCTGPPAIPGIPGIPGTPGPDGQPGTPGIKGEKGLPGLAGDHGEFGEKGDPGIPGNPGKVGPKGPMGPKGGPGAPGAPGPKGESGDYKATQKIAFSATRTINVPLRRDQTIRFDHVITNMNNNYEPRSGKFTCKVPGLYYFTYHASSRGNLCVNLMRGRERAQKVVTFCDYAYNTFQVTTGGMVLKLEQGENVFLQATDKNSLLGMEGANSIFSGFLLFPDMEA
Sequence of human complement factor C1q (human) (P02747 29-245 limits assumed, chain 3 of 3, further chain): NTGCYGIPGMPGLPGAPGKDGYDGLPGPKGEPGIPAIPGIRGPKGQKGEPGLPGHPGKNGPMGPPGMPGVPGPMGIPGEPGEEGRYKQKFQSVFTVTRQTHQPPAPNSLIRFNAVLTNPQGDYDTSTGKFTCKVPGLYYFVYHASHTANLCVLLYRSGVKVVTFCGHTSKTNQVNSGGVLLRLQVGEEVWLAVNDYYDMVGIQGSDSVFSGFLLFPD

Substance	Bmax (OD405 at 10 µg/ml) [1] [OD405]	% NK cells binding antibody [2] [%]	% monocytes binding antibody [3] [%]	Bmax (OD405 at 10 µg/ml) [4] [OD405]	% granulocytes binding antibody [5] [%]
human IgG4 (CLB, the Netherlands), negative control (antibody)	0.222	0.06	9.4	0.182	–
HuMab 002 Fc variant IgG4v1 (S228P; L235E) (antibody)	–	–	14.5	–	1.6

Reference: patent publication US20050226876A1
